Assay results published in PMC4715182, “Structure of a Chaperone-Usher Pilus Reveals the Molecular Basis of Rod Uncoiling” (Cell, 2016).
Where “and” joins values, the source holds several entries; their conditions need not be identical. Equal entries are not always repeated.

Tests used:
[1] = target: T1, PapA Gln106AzF, P04127; assay: pilus rod formation quantified by Sypro Ruby signal after ultracentrifugation; settings: chain shown with the change;; parent: est. 100; read off a plot
T1 chain: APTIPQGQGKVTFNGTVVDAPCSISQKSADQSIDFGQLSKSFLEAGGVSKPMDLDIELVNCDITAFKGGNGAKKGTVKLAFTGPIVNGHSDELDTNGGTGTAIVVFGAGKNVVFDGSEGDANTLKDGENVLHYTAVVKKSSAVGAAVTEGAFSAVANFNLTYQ

[2] = target: T2, PapA Val143AzF, P04127; assay: as above; settings: chain shown with the change;; parent: est. 100; read off a plot
T2 chain: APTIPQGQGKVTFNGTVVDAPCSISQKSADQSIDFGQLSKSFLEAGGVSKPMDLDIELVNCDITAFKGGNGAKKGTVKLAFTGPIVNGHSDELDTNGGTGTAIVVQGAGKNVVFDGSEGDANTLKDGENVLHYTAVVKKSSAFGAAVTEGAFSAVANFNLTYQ

[3] = target: T3, PapA Lys27AzF, P04127; assay: as above; settings: chain shown with the change;; parent: est. 100; read off a plot
T3 chain: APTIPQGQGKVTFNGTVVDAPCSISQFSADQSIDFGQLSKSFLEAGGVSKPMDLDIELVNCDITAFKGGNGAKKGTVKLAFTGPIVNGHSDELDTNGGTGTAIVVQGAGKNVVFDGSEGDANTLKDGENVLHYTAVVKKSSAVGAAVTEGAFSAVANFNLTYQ

[4] = target: T4, PapA Val18AzF, P04127; assay: as above; settings: chain shown with the change;; parent: est. 100; read off a plot
T4 chain: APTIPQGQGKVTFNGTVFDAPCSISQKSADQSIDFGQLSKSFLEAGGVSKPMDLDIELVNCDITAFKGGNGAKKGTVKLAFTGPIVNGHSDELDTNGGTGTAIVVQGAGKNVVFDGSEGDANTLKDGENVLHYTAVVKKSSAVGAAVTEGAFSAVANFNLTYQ

[5] = target: the molecule itself; assay: in vitro rod formation (pelleting by ultracentrifugation, negative stain EM, Sypro Ruby signal); purified PapD:PapA complexes at 50 μM, 20°C, 72 hr; four rounds of ultracentrifugation at 57,000 x g; 20 mM Tris (pH 7.5), 150 mM NaCl
[6] = target: T5, PapA Thr76AzF, P04127; assay: pilus rod formation quantified by Sypro Ruby signal after ultracentrifugation; settings: chain shown with the change;; parent: est. 100; read off a plot
T5 chain: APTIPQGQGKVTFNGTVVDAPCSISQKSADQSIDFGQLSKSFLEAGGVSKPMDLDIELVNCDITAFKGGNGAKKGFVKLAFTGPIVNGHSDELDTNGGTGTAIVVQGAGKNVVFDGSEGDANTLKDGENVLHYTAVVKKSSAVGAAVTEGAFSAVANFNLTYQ

[7] = target: T6, PapA Lys50AzF, P04127; assay: as above; settings: chain shown with the change;; parent: est. 100; read off a plot
T6 chain: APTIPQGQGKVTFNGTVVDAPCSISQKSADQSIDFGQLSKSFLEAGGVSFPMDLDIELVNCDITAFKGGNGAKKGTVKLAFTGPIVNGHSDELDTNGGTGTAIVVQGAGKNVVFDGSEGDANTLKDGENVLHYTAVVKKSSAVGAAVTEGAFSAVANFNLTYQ

[8] = target: the molecule itself; assay: SEC; purified PapDHis:PapA left to polymerize at 20°C for 16 hr at 38 μM; Superdex 200 10/300 increase; donor-strand exchange (DSE) products
[9] = target: T7, PapA Val155AzF, P04127; assay: pilus rod formation quantified by Sypro Ruby signal after ultracentrifugation; settings: chain shown with the change;; parent: est. 100; read off a plot
T7 chain: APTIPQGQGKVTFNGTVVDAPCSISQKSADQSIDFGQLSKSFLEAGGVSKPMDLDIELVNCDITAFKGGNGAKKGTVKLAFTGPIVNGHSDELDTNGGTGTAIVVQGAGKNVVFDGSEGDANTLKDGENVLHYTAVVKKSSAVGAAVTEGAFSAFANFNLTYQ

[10] = target: the molecule itself; assay: SEC-MALS; sample of PapD:PapA Val18AzF; Superdex 200 10/300 increase; molecular weight of each peak

B1: PapA wild-type, P04127 Q106AzF (protein)
chain: APTIPQGQGKVTFNGTVVDAPCSISQKSADQSIDFGQLSKSFLEAGGVSKPMDLDIELVNCDITAFKGGNGAKKGTVKLAFTGPIVNGHSDELDTNGGTGTAIVVFGAGKNVVFDGSEGDANTLKDGENVLHYTAVVKKSSAVGAAVTEGAFSAVANFNLTYQ
B1 showed a percent of parent (% of wild-type Sypro Ruby signal) [1] of 93.

B2: PapA wild-type, P04127 V143AzF (protein)
chain: APTIPQGQGKVTFNGTVVDAPCSISQKSADQSIDFGQLSKSFLEAGGVSKPMDLDIELVNCDITAFKGGNGAKKGTVKLAFTGPIVNGHSDELDTNGGTGTAIVVQGAGKNVVFDGSEGDANTLKDGENVLHYTAVVKKSSAFGAAVTEGAFSAVANFNLTYQ
B2 was tested, and the percent of parent (% of wild-type Sypro Ruby signal) [2] was 94.

B3: PapA wild-type, P04127 K27AzF (protein)
chain: APTIPQGQGKVTFNGTVVDAPCSISQFSADQSIDFGQLSKSFLEAGGVSKPMDLDIELVNCDITAFKGGNGAKKGTVKLAFTGPIVNGHSDELDTNGGTGTAIVVQGAGKNVVFDGSEGDANTLKDGENVLHYTAVVKKSSAVGAAVTEGAFSAVANFNLTYQ
For B3, the percent of parent (% of wild-type Sypro Ruby signal) [3] was 93.

B4: PapA wild-type, P04127 V18AzF (protein)
chain: APTIPQGQGKVTFNGTVFDAPCSISQKSADQSIDFGQLSKSFLEAGGVSKPMDLDIELVNCDITAFKGGNGAKKGTVKLAFTGPIVNGHSDELDTNGGTGTAIVVQGAGKNVVFDGSEGDANTLKDGENVLHYTAVVKKSSAVGAAVTEGAFSAVANFNLTYQ
B4 showed a percent of parent (% of wild-type Sypro Ruby signal) [4] of 5.

B5: PapA Gln106AzF (natural protein)
chain: APTIPQGQGKVTFNGTVVDAPCSISQKSADQSIDFGQLSKSFLEAGGVSKPMDLDIELVNCDITAFKGGNGAKKGTVKLAFTGPIVNGHSDELDTNGGTGTAIVVFGAGKNVVFDGSEGDANTLKDGENVLHYTAVVKKSSAVGAAVTEGAFSAVANFNLTYQ
modifications: p-azido-L-phenylalanine (AzF) at 106
notes: PapA of uropathogenic E. coli with AzF at residue 106 by amber suppression; The new residue is the unnatural amino acid p-azido-L-phenylalanine; written as F with the modification
B5: binds [5].

B6: PapA Lys50AzF (natural protein)
chain: APTIPQGQGKVTFNGTVVDAPCSISQKSADQSIDFGQLSKSFLEAGGVSFPMDLDIELVNCDITAFKGGNGAKKGTVKLAFTGPIVNGHSDELDTNGGTGTAIVVQGAGKNVVFDGSEGDANTLKDGENVLHYTAVVKKSSAVGAAVTEGAFSAVANFNLTYQ
modifications: p-azido-L-phenylalanine (AzF) at 50
notes: PapA of uropathogenic E. coli with AzF at residue 50 by amber suppression; The new residue is the unnatural amino acid p-azido-L-phenylalanine; written as F with the modification
B6: binds [5].

B7: PapA Val143AzF (natural protein)
chain: APTIPQGQGKVTFNGTVVDAPCSISQKSADQSIDFGQLSKSFLEAGGVSKPMDLDIELVNCDITAFKGGNGAKKGTVKLAFTGPIVNGHSDELDTNGGTGTAIVVQGAGKNVVFDGSEGDANTLKDGENVLHYTAVVKKSSAFGAAVTEGAFSAVANFNLTYQ
modifications: p-azido-L-phenylalanine (AzF) at 143
notes: PapA of uropathogenic E. coli with AzF at residue 143 by amber suppression; The new residue is the unnatural amino acid p-azido-L-phenylalanine; written as F with the modification
B7: binds [5].

B8: PapA wild-type, P04127 T76AzF (protein)
chain: APTIPQGQGKVTFNGTVVDAPCSISQKSADQSIDFGQLSKSFLEAGGVSKPMDLDIELVNCDITAFKGGNGAKKGFVKLAFTGPIVNGHSDELDTNGGTGTAIVVQGAGKNVVFDGSEGDANTLKDGENVLHYTAVVKKSSAVGAAVTEGAFSAVANFNLTYQ
B8 showed a percent of parent (% of wild-type Sypro Ruby signal) [6] of 96.

B9: PapA Thr76AzF (natural protein)
chain: APTIPQGQGKVTFNGTVVDAPCSISQKSADQSIDFGQLSKSFLEAGGVSKPMDLDIELVNCDITAFKGGNGAKKGFVKLAFTGPIVNGHSDELDTNGGTGTAIVVQGAGKNVVFDGSEGDANTLKDGENVLHYTAVVKKSSAVGAAVTEGAFSAVANFNLTYQ
modifications: p-azido-L-phenylalanine (AzF) at 76
notes: PapA of uropathogenic E. coli with AzF at residue 76 by amber suppression; The new residue is the unnatural amino acid p-azido-L-phenylalanine; written as F with the modification
B9: binds [5].

B10: PapA wild-type, P04127 K50AzF (protein)
chain: APTIPQGQGKVTFNGTVVDAPCSISQKSADQSIDFGQLSKSFLEAGGVSFPMDLDIELVNCDITAFKGGNGAKKGTVKLAFTGPIVNGHSDELDTNGGTGTAIVVQGAGKNVVFDGSEGDANTLKDGENVLHYTAVVKKSSAVGAAVTEGAFSAVANFNLTYQ
B10 gave a percent of parent (% of wild-type Sypro Ruby signal) [7] of 72.

B11: PapA Lys27AzF (natural protein)
chain: APTIPQGQGKVTFNGTVVDAPCSISQFSADQSIDFGQLSKSFLEAGGVSKPMDLDIELVNCDITAFKGGNGAKKGTVKLAFTGPIVNGHSDELDTNGGTGTAIVVQGAGKNVVFDGSEGDANTLKDGENVLHYTAVVKKSSAVGAAVTEGAFSAVANFNLTYQ
modifications: p-azido-L-phenylalanine (AzF) at 27
notes: PapA of uropathogenic E. coli with AzF at residue 27 by amber suppression; The new residue is the unnatural amino acid p-azido-L-phenylalanine; written as F with the modification
B11: binds [5].

B12: PapA wild-type (natural protein)
chain: APTIPQGQGKVTFNGTVVDAPCSISQKSADQSIDFGQLSKSFLEAGGVSKPMDLDIELVNCDITAFKGGNGAKKGTVKLAFTGPIVNGHSDELDTNGGTGTAIVVQGAGKNVVFDGSEGDANTLKDGENVLHYTAVVKKSSAVGAAVTEGAFSAVANFNLTYQ
notes: PapA, major P pilus rod subunit of uropathogenic E. coli; Ala1 is the very N terminus in the model; also called major pilus subunit PapA; P pilus rod subunit
B12: binds [8].

B13: PapA wild-type, P04127 V155AzF (protein)
chain: APTIPQGQGKVTFNGTVVDAPCSISQKSADQSIDFGQLSKSFLEAGGVSKPMDLDIELVNCDITAFKGGNGAKKGTVKLAFTGPIVNGHSDELDTNGGTGTAIVVQGAGKNVVFDGSEGDANTLKDGENVLHYTAVVKKSSAVGAAVTEGAFSAFANFNLTYQ
For B13, the percent of parent (% of wild-type Sypro Ruby signal) [9] was 5.

B14: PapA Asp126AzF (natural protein)
chain: APTIPQGQGKVTFNGTVVDAPCSISQKSADQSIDFGQLSKSFLEAGGVSKPMDLDIELVNCDITAFKGGNGAKKGTVKLAFTGPIVNGHSDELDTNGGTGTAIVVQGAGKNVVFDGSEGDANTLKFGENVLHYTAVVKKSSAVGAAVTEGAFSAVANFNLTYQ
modifications: p-azido-L-phenylalanine (AzF) at 126
notes: PapA of uropathogenic E. coli with AzF at residue 126 by amber suppression; The new residue is the unnatural amino acid p-azido-L-phenylalanine; written as F with the modification
B14: binds [8].

B15: PapA Asn96AzF (natural protein)
chain: APTIPQGQGKVTFNGTVVDAPCSISQKSADQSIDFGQLSKSFLEAGGVSKPMDLDIELVNCDITAFKGGNGAKKGTVKLAFTGPIVNGHSDELDTFGGTGTAIVVQGAGKNVVFDGSEGDANTLKDGENVLHYTAVVKKSSAVGAAVTEGAFSAVANFNLTYQ
modifications: p-azido-L-phenylalanine (AzF) at 96
notes: PapA of uropathogenic E. coli with AzF at residue 96 by amber suppression; The new residue is the unnatural amino acid p-azido-L-phenylalanine; written as F with the modification
B15: binds [8].

B16: PapA Val155AzF (natural protein)
chain: APTIPQGQGKVTFNGTVVDAPCSISQKSADQSIDFGQLSKSFLEAGGVSKPMDLDIELVNCDITAFKGGNGAKKGTVKLAFTGPIVNGHSDELDTNGGTGTAIVVQGAGKNVVFDGSEGDANTLKDGENVLHYTAVVKKSSAVGAAVTEGAFSAFANFNLTYQ
modifications: p-azido-L-phenylalanine (AzF) at 155
notes: PapA of uropathogenic E. coli with AzF at residue 155 by amber suppression; The new residue is the unnatural amino acid p-azido-L-phenylalanine; written as F with the modification
B16: binds [8].

B17: PapA Val18AzF (natural protein)
chain: APTIPQGQGKVTFNGTVFDAPCSISQKSADQSIDFGQLSKSFLEAGGVSKPMDLDIELVNCDITAFKGGNGAKKGTVKLAFTGPIVNGHSDELDTNGGTGTAIVVQGAGKNVVFDGSEGDANTLKDGENVLHYTAVVKKSSAVGAAVTEGAFSAVANFNLTYQ
modifications: p-azido-L-phenylalanine (AzF) at 18
notes: PapA of uropathogenic E. coli with AzF at residue 18 by amber suppression; The new residue is the unnatural amino acid p-azido-L-phenylalanine; written as F with the modification; also called Val18 mutant
In the case of B17, the “stoichiometry N” value [10] is reported as 2 and 3.
